{"source": "patent US20240092942A1", "about": "(LEADARTIS S L, published 2024)", "binders": {"B1": {"name": "urelumab (anti-hu4-1BB, BMS-663513) (antibody, V domains shown)", "VH": "QVQLQQWGAGLLKPSETLSLTCAVYGGSFSGYYWSWIRQSPEKGLEWIGEINHGGYVTYNPSLESRVTISVDTSKNQFSLKLSSVTAADTAVYYCARDYGPGNYDWYFDLWGRGTLVTVSS", "VL": "EIVLTQSPATLSLSPGERATLSCRASQSVSSYLAWYQQKPGQAPRLLIYDASNRATGIPARFSGSGSGTDFTLTISSLEPEDFAVYYCQQRSNWPPALTFGGGTKVEIK"}, "B2": {"name": "4-1BB IgG (SAP3.28 IgG), anti-hu4-1BB chimeric antibody (antibody, V domains shown)", "VH": "QVQLQESGPGLVRPSQTLSLTCTVSGFSLTSYGVHWVRQPPGRGLEWIGVIWRGGSTDYNAAFMSRLSITKDNSKSQVFFEMNSLQADDTAIYYCASPLGTSWDAMDYWGQGSLVTVSS", "VL": "DIQMTQSPSSLSASVGDRVTITCRASQDISNYLNWYQQKPGKAPKLLIYYKSRLHSGVPSRFSGSGSGTDYTLTISSLQPEDFATYYCQQGNTLPYTFGQGTKVEIK", "notes": "Bivalent IgG with the Fc region of murine IgG1, supplied by Prof; M. Glennie; also called SAP3.28 mAb; 4-1EE IgG"}}, "key": {"[1]": {"target": "hu4-1BB constitutively expressed on NF-kB-luc2/4-1BB Jurkat reporter cells (Promega, #JA2351) (human, UniProt Q07011 24-255)", "sequence (Q07011 24-255)": "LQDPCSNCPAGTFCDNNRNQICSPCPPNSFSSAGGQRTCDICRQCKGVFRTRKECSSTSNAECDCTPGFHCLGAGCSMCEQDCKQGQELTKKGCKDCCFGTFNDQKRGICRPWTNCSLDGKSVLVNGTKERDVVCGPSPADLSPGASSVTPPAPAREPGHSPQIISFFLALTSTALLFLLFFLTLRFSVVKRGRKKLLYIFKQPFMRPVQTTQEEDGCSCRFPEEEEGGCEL", "test": "cell-based or functional assay"}, "[2]": {"target": "T1, recombinant His-tagged hu4-1BB (Sino Biological, #10014-H08H) (human, UniProt Q07011 24-186)", "T1 construct": "Bought; also called soluble hu4-1BB; not shown: His tag", "T1 sequence (Q07011 24-186 limits assumed)": "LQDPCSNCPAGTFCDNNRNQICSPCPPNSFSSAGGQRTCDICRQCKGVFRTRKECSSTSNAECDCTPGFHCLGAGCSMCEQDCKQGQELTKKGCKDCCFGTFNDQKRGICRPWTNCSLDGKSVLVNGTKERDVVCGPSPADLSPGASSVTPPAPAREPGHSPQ", "test": "titration ELISA on plastic immobilized His-tagged hu4-1BB, GAM-HRP"}}, "data": [{"binder": "B1", "values": [{"measurement": "EC50 (read off the curve); NF-kB reporter, co-culture with CHO [Cont.) c]", "setting": "[1]", "value": "~0.1", "unit": "nM"}, {"measurement": "EC50 (read off the curve); NF-kB reporter, co-culture with CHO^huFcγRIIb [Cont.) c]", "setting": "[1]", "value": "~0.06", "unit": "nM"}]}, {"binder": "B2", "values": [{"measurement": "EC50 (read off the curve); NF-kB reporter, co-culture with CHO^huFcγRIIb [Cont.) c]", "setting": "[1]", "value": "~1", "unit": "nM"}, {"measurement": "EC50 (read off the curve)", "setting": "[2]", "value": "~0.2", "unit": "µg/mL"}]}]}
